In patent US20220339270A1 (published 2022) one finds Kd, binding result and OD450-570 data, which are given here for seven molecules.

The target in test [1] is T1, extracellular tau in the form of paired helical filaments (ePHF) (UniProt P10636-8 1-441, limits assumed).
T1 construct: Immobilised on 96-well plates for the ePHF tau ELISA; also called ePHF tau; PHF tau
The test can be described thus: method not stated.

Test [2] concerns the target T2, recombinant tau mutant protein tau441-T212A+S214A (phospho-Tau variant) (human, UniProt P10636 1-758, phosphorylated (phospho-Tau variant; kinase DYRK1A by the context)).
T2 construct: not shown: his tag (detected with anti-his antibody)
The test can be described thus: PT3 ELISA with phospho-Tau variants.

The target of test [3] is T3, recombinant tau mutant protein tau441-T212A+T217A (phospho-Tau variant) (human, UniProt P10636 1-758, phosphorylated (phospho-Tau variant; kinase DYRK1A by the context)).
T3 construct: not shown: his tag (detected with anti-his antibody)
The test can be described thus: PT3 ELISA with phospho-Tau variants.

The target in test [4] is T4, recombinant tau mutant protein tau441-T217A+T231A (phospho-Tau variant) (human, UniProt P10636 1-758, phosphorylated (phospho-Tau variant; kinase DYRK1A by the context)).
T4 construct: not shown: his tag (detected with anti-his antibody)
The test can be described thus: PT3 ELISA with phospho-Tau variants.

For test [5], the target named is T5, recombinant tau mutant protein tau441-T212A+T231A (phospho-Tau variant) (human, UniProt P10636 1-758, phosphorylated (phospho-Tau variant; kinase DYRK1A by the context)).
T5 construct: not shown: his tag (detected with anti-his antibody)
T5 sequence (P10636 other isoform, or with tags, fused parts or gaps T212A T231A T212A T231A): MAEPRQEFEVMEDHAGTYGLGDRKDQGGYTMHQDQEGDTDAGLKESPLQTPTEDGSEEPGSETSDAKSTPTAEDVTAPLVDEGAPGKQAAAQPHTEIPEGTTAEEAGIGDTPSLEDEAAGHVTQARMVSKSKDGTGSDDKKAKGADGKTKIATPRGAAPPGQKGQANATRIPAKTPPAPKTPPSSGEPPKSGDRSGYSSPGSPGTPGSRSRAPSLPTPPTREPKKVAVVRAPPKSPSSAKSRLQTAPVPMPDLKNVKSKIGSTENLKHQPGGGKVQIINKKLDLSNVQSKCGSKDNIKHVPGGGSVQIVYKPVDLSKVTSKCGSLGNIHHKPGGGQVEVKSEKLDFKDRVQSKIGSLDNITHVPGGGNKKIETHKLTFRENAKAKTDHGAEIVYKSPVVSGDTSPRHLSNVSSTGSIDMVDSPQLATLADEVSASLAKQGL
The test can be described thus: PT3 ELISA with phospho-Tau variants.

In test [6] the target is T6, recombinant tau mutant protein tau441-T212A+T217A+T231A (phospho-Tau variant) (human, UniProt P10636 1-758, phosphorylated (phospho-Tau variant; kinase DYRK1A by the context)).
T6 construct: not shown: his tag (detected with anti-his antibody)
The experiment in a line: PT3 ELISA with phospho-Tau variants.

The target of a further test is T7, Phospho_Tau441_T212A (human, UniProt P10636 2-758, phosphorylated in vitro by DYRK1A; sites not determined).
T7 construct: not shown: his tag added
The experiment in a line: ELISA, PT3 immobilized, tau protein applied at 333 ng/mL.

Another test concerns the target T8, Tau441_T212A (human, UniProt P10636 2-758).
T8 construct: not phosphorylated; not shown: his tag added
The description is as above.

The target in a further test is T9, Phospho_Tau441_T202A (human, UniProt P10636 2-758, phosphorylated in vitro by DYRK1A; sites not determined).
T9 construct: the list of mutated sites gives S202; also called S202 mutant; not shown: his tag added
The description is as above.

A further test addresses T10, Tau441_T202A (human, UniProt P10636 2-758).
T10 construct: not phosphorylated; printed T202A, the text gives S202; also called S202 mutant; not shown: his tag added
The description is as above.

The next test addresses T11, Phospho_Tau441_S404A (human, UniProt P10636 2-758, phosphorylated in vitro by DYRK1A; sites not determined).
T11 construct: not shown: his tag added
The description is as above.

Another test deals with T12, Tau441_S404A (human, UniProt P10636 2-758).
T12 construct: not phosphorylated; not shown: his tag added
The description is as above.

Another test deals with T13, Phospho_Tau441_T181A (human, UniProt P10636 2-758, phosphorylated in vitro by DYRK1A; sites not determined).
T13 construct: not shown: his tag added
Described as above.

The next test deals with T14, Tau441_T181A (human, UniProt P10636 2-758).
T14 construct: not phosphorylated; not shown: his tag added
Described as above.

Another test deals with T15, Phospho_Tau441_S199A (human, UniProt P10636 2-758, phosphorylated in vitro by DYRK1A; sites not determined).
T15 construct: not shown: his tag added
The test is described as above.

Another test concerns the target T16, Tau441_S199A (human, UniProt P10636 2-758).
T16 construct: not phosphorylated; not shown: his tag added
The test is described as above.

A further test deals with T17, Phospho_Tau441_T205A (human, UniProt P10636 2-758, phosphorylated in vitro by DYRK1A; sites not determined).
T17 construct: not shown: his tag added
T17 sequence (P10636 other isoform, or with tags, fused parts or gaps T205A T205A): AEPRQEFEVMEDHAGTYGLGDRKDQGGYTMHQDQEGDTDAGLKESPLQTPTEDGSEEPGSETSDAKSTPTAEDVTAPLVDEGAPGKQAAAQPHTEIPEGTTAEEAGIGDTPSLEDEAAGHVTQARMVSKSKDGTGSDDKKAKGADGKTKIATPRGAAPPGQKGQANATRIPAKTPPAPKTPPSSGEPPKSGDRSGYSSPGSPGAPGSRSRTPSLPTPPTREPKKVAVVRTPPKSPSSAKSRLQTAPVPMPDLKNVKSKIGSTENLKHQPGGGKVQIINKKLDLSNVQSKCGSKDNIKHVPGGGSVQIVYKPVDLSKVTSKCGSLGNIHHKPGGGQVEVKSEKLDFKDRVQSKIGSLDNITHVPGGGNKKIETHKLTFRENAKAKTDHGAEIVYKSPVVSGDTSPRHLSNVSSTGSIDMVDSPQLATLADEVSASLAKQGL
Described as above.

In another test the target is T18, Tau441_T205A (human, UniProt P10636 2-758).
T18 construct: not phosphorylated; not shown: his tag added
T18 sequence (P10636 other isoform, or with tags, fused parts or gaps T205A T205A): as above
Described as above.

The target in another test is T19, Phospho_Tau441_T217A (human, UniProt P10636 2-758, phosphorylated in vitro by DYRK1A; sites not determined).
T19 construct: not shown: his tag added
Described as above.

The next test has as its target T20, Tau441_T217A (human, UniProt P10636 2-758).
T20 construct: not phosphorylated; not shown: his tag added
Described as above.

The target in another test is T21, Phospho_Tau441_T231A (human, UniProt P10636 2-758, phosphorylated in vitro by DYRK1A; sites not determined).
T21 construct: not shown: his tag added
T21 sequence (P10636 other isoform, or with tags, fused parts or gaps T231A T231A): as the sequence (P10636 other isoform, or with tags, fused parts or gaps T205A T205A) above, with A204T, T230A counted along it
The test is described as above.

The target in another test is T22, Tau441_T231A (human, UniProt P10636 2-758).
T22 construct: not phosphorylated; not shown: his tag added
T22 sequence (P10636 other isoform, or with tags, fused parts or gaps T231A T231A): as the sequence (P10636 other isoform, or with tags, fused parts or gaps T205A T205A) above, with A204T, T230A counted along it
The description is as above.

A further test addresses T23, Phospho_Tau441_S396A (human, UniProt P10636 2-758, phosphorylated in vitro by DYRK1A; sites not determined).
T23 construct: not shown: his tag added
The test is described as above.

The target in a further test is T24, Tau441_S396A (human, UniProt P10636 2-758).
T24 construct: not phosphorylated; not shown: his tag added
T24 sequence (P10636 other isoform, or with tags, fused parts or gaps S396A S396A): as the sequence (P10636 other isoform, or with tags, fused parts or gaps T205A T205A) above, with A204T, S395A counted along it
Described as above.

The target in another test is T25, Phospho_Tau441_S400A (human, UniProt P10636 2-758, phosphorylated in vitro by DYRK1A; sites not determined).
T25 construct: not shown: his tag added
Described as above.

The target in the next test is T26, Tau441_S400A (human, UniProt P10636 2-758).
T26 construct: not phosphorylated; not shown: his tag added
The test is described as above.

A further test addresses T27, Phospho_Tau441_S422A (human, UniProt P10636 2-758, phosphorylated in vitro by DYRK1A; sites not determined).
T27 construct: not shown: his tag added
The test is described as above.

The target of test [7] is T28, Tau441-T212A + T231A, phosphorylated in vitro by DYRK1A (human, UniProt P10636 1-758, phosphorylated in vitro by DYRK1A; occupied sites not determined individually).
T28 construct: His-tagged
The experiment in a line: PT3 ELISA, 210 ng/mL DYRK1A-phosphorylated tau variant.

The target of test [8] is T29, Tau441-T212A + T217A + T231A, phosphorylated in vitro by DYRK1A (human, UniProt P10636 1-758, phosphorylated in vitro by DYRK1A; occupied sites not determined individually).
T29 construct: His-tagged
The test is described as above.

The target in test [9] is T30, Wild-type Tau441, phosphorylated in vitro by DYRK1A (human, UniProt P10636 1-758).
T30 construct: Recombinant protein detected with an anti-his antibody; also called phospho-tau
The description is as above.

In test [10] the target is T31, Tau441-T212A + S214A, phosphorylated in vitro by DYRK1A (human, UniProt P10636 1-758, phosphorylated in vitro by DYRK1A; occupied sites not determined individually).
T31 construct: His-tagged
T31 sequence (P10636 other isoform, or with tags, fused parts or gaps T212A S214A T212A S214A limits assumed): as the sequence (P10636 other isoform, or with tags, fused parts or gaps T212A T231A T212A T231A) above, with S214A, A231T counted along it
The description is as above.

In test [11] the target is T32, Tau441-T212A + T217A, phosphorylated in vitro by DYRK1A (human, UniProt P10636 1-758, phosphorylated in vitro by DYRK1A; occupied sites not determined individually).
T32 construct: His-tagged
The test is described as above.

Test [12] concerns the target T33, Tau441-T217A + T231A, phosphorylated in vitro by DYRK1A (human, UniProt P10636 1-758, phosphorylated in vitro by DYRK1A; occupied sites not determined individually).
T33 construct: His-tagged
The test is described as above.

Test [13] addresses T34, wild-type tau (441 amino acids; tau441; NP_005901.2) (human, UniProt P10636 1-758).
T34 construct: Unphosphorylated recombinant tau441 used in the wild-type tau ELISA; also called wt tau441; wtTau
The test can be described thus: wtTau ELISA.

T34 sequence (P10636 other isoform, or with tags, fused parts or gaps limits assumed): as the sequence (P10636 other isoform, or with tags, fused parts or gaps T212A T231A T212A T231A) above, with A212T, A231T counted along it
T23 sequence (P10636 other isoform, or with tags, fused parts or gaps S396A S396A): as the sequence (P10636 other isoform, or with tags, fused parts or gaps T205A T205A) above, with A204T, S395A counted along it
T2 sequence (P10636 other isoform, or with tags, fused parts or gaps T212A S214A T212A S214A): as the sequence (P10636 other isoform, or with tags, fused parts or gaps T212A T231A T212A T231A) above, with S214A, A231T counted along it
T1 sequence (P10636 other isoform, or with tags, fused parts or gaps limits assumed): as the sequence (P10636 other isoform, or with tags, fused parts or gaps T212A T231A T212A T231A) above, with A212T, A231T counted along it

B1: anti-tau antibody PT3 (antibody, V domains shown)
VH: EVKLVESGGDLVKPGGSLKLSCAASGFTFSSYAMSWVRQNPEKRLEWVASISKGGNTYYPNSVKGRFTISRDNARNILYLQMSSLRSEDTALYYCARGWGDYGWFAYWGQVTLVTVSA
VL: DIKMTQSPSSMYASLGERVTITCKASQDINRYLNWFQQKPGKSPKTLIYRANRLLDGVPSRFSGSGSGQDYSLTISSLDYEDMGIYYCLQYDEFPLTFGDGTKLELK
notes: also called purified PT3 antibody
In the case of B1, the Kd in test [1] amounted to 18 pM. Besides, the binding result in test [2], in test [3], in test [4], in test [5] and in test [6] was “no binding (tested: 210 ng/mL)” throughout.

B2: anti-tau antibody PT3 (antibody, V domains shown)
VH: B1 VH
VL: B1 VL
Consider B2, for which the OD450-570 with Phospho_Tau441_T212A came out at 0; in the test with Tau441_T212A it was 0; with Phospho_Tau441_T202A it was 0.6; with Tau441_T202A it was 0; with Phospho_Tau441_S404A it was 0.6; with Tau441_S404A it was 0. Further, the OD450-570 was found to be 0.4 with Phospho_Tau441_T181A; 0 with Tau441_T181A; 0.7 in the test with Phospho_Tau441_S199A; 0 with Tau441_S199A; 0.4 with Phospho_Tau441_T205A; 0 in the test with Tau441_T205A. Moreover, the OD450-570 with Phospho_Tau441_T217A stood at 0; with Tau441_T217A, 0; with Phospho_Tau441_T231A it was 0.3; in the test with Tau441_T231A it was 0; in the test with Phospho_Tau441_S396A, 0.5; with Tau441_S396A it was 0. Also, the OD450-570 is 0.3 in the test with Phospho_Tau441_S400A, 0 with Tau441_S400A and 0.3 with Phospho_Tau441_S422A.

B3: anti-tau antibody PT3 (antibody, V domains shown)
VH: B1 VH
VL: B1 VL
Turning to B3, the OD450-570 in test [7] amounted to 0.1 OD; in test [8] it was 0 OD; in [9], 1.7 OD; in [10], 0.1 OD; in test [11], 0 OD; in test [12] it was 0.1 OD.

B4: IPN002 Fab expressed from TAU_ITR127 (CAG, HF.T2AL) (Fab, V domains shown)
VH: EVHLVESGGALVKPGGSLKLSCAASGFSFSKYGMSWVRQTPDKRLEWVATISSSGSRTYYPDSVKGQFTISRDNAKNTLYLQMSSLKSEDTAMYYCSISWDGAMDYWGQGTSVTVSS
VL: DVLMTQTPLSLPVSLGDQASISCKSSQSIVHSNGNTYLEWYLQKPGQSPKLLVYKVSNRFSGVPDRFSGSGSGTDFTLKISRVEAEDLGTYYCFQGSLVPWAFGGGTKLEIK
For the molecule B4, in test [13], the binding result is listed as “binds”.

B5: IPN002 Fab_ext expressed from TAU_ITR128 (CAG, HF.T2AL) (Fab, V domains shown)
VH: B4 VH
VL: B4 VL
With B5, the binding result in test [13] is reported as “binds”.

B6: IPN002 Fab_ext expressed from TAU_ITR129 (CBA, hGbin, LT2AH) (Fab, V domains shown)
VH: B4 VH
VL: B4 VL
notes: Extended Fab
Take B6: in test [13], the binding result is “binds”.

B7: IPN002 Fab_ext expressed from TAU_ITR130 (CAG, LT2AH) (Fab, V domains shown)
VH: B4 VH
VL: B4 VL
notes: Extended Fab
Take B7: the binding result in test [13] is on record as “binds”.
